Experimental findings from PMC3075667 are described below.

Data set [1] deals with Δ79AAG wild type (human) (UniProt P29372). Kind of data set: EMSA.
Data set [2] shares this target. The experiment in a line: competition.
Where [3] appears, read: 3,N4-ethenocytosine opposite G (G19).

UniProt P29372, sequence (P29372 84-298, stated change not applied): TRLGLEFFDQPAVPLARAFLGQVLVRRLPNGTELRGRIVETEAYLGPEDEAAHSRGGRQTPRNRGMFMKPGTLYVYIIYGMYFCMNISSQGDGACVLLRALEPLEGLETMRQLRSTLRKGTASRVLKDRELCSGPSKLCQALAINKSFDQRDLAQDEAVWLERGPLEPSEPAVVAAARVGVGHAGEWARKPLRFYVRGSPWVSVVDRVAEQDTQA

Take ϵC:G 13-mer: in the data set with Δ79AAG wild type (human) [1] (setting [3]), the Kd stood at 21 nM. Also, in the data set with Δ79AAG wild type (human) [2] (setting [3]), the 50% inhibitory concentration (IC50) is 39 nM.
In the data set with Δ79AAG wild type (human) [1] (1,N6-ethenoadenine opposite T), ϵA:T 13-mer registered a Kd of 46 nM. In the data set with Δ79AAG wild type (human) [2] (1,N6-ethenoadenine opposite T), this substance displayed an IC50 of 163 nM.

For orientation: Kd means a measure of binding affinity in units of concentration. A word on the IC50: it is the midpoint of a concentration-inhibition curve. Low values mean greater potency, high ones weaker potency.
